What all share (test): purified protein, by the assay type
Holding throughout (conditions): pH 8.0; 25.0 °C

Substrate in data set [1]: N[C@@H](CCC(=O)N[C@@H](CS)C(=O)NCC(=O)O)C(=O)O
Also on record: Disulfide oxidoreductase assay, steady-state kinetics, coupled NADPH consumption at 340 nm, pH 8.0, 25 °C. The protocol:
(§1) Steady-state kinetics of wild-type and mutant ScGrx7 and HsGrx5^C122S in the GSSCys and [compound left out] assays were determined spectrophotometrically by monitoring the consumption of NADPH at 340 nm and 25 °C using a thermostated Jasco V-650 UV/vis spectrophotometer[11],[19],[25]. Fresh stock solutions of NADPH, GSH, GR, and GSSCys or [compound left out] were prepared in assay buffer containing 0.1 M Tris/HCl, 1 mM EDTA, pH 8.0 before each experiment. Both assays were performed with 0.1 mM NADPH and 1 U/ml ScGR. The following final protein concentrations were used for Y110F/H/A (5–150 nM), D144A/K (10 nM), E147A/K (10 nM), R153A/E (25–50 nM), ScGrx7^WP (20 nM), ScGrx7^loop (up to 1.4 µM), ScGrx7^WP+loop (up 2.6 µM), HsGrx5^C122S (up to 15 µM), HsGrx5^RR (up to 12 µM), HsGrx5^loop (up to 1.6 µM), and HsGrx5^RR+loop (up to 4.0 µM). For the GSSCys assays, GSH was varied between 50 µM and 1.5 mM at fixed GSSCys concentrations (25, 50, 100, and 150 µM). NADPH, GSH, and GR were mixed in assay buffer before Grx was added and a baseline was recorded for 30 s. All GSSCys assays were started by the addition of GSSCys. The absorbance of a reference cuvette containing all components but no Grx was measured in parallel and subtracted from the obtained Grx activity. For the [compound left out] assays, GSH was varied between 100 µM and 2.0 mM at fixed concentrations of [compound left out] (0.18, 0.37, 0.55, and 0.74 mM). NADPH, GSH, and [compound left out] were preincubated in assay buffer for 2 min before GR was added and a baseline was recorded for 30 s. All [compound left out] assays were started by the addition of enzyme. Kinetic data were analyzed in Excel and SigmaPlot 13 by nonlinear and linear regression according to Michaelis–Menten, Lineweaver–Burk, Eadie–Hofstee, and Hanes theory[11],[19],[25].

Substrate in data set [2]: N[C@@H](CCC(=O)N[C@@H](CS)C(=O)NCC(=O)O)C(=O)O
Also noted: GSSCys oxidoreductase assay, steady-state kinetics, coupled NADPH consumption at 340 nm, pH 8.0, 25 °C. The protocol: as §1, with “theory[11],[19],[25]. 13 Supplementary Figure 7 Supplementary Figure 7 | GSSCys assay steady-state kinetics of ScGrx7 wild-type enzyme and D144X mutants. (a) Michaelis-Menten plots of the GSH-dependent reaction velocity at different initial concentrations of GSSCys. […]” for “theory[11],[19],[25].”

Substrate in data set [3]: N[C@@H](CCC(=O)N[C@@H](CSSC[C@H](N)C(=O)O)C(=O)NCC(=O)O)C(=O)O
Also on record: GSSCys oxidoreductase assay, steady-state kinetics, coupled NADPH consumption at 340 nm, pH 8.0, 25 °C. The protocol:
as §1, with “theory[11],[19],[25]. 13 Supplementary Figure 7 Supplementary Figure 7 | GSSCys assay steady-state kinetics of ScGrx7 wild-type enzyme and D144X mutants. (a) Michaelis-Menten plots of the GSH-dependent reaction velocity at different initial concentrations of GSSCys. […]” for “theory[11],[19],[25].”

Substrate in data set [4]: N[C@@H](CCC(=O)N[C@@H](CS)C(=O)NCC(=O)O)C(=O)O
Also noted: GSSCys oxidoreductase assay, steady-state kinetics, coupled NADPH consumption at 340 nm, pH 8.0, 25 °C. The protocol:
as §1, with “theory[11],[19],[25]. 13 Supplementary Figure 7 Supplementary Figure 7 | GSSCys assay steady-state kinetics of ScGrx7 wild-type enzyme and D144X mutants. (a) Michaelis-Menten plots of the GSH-dependent reaction velocity at different initial concentrations of GSSCys. […]” for “theory[11],[19],[25].”
The source holds these as a separate data set.

Substrate in data set [5]: N[C@@H](CCC(=O)N[C@@H](CS)C(=O)NCC(=O)O)C(=O)O
Also noted: GSSCys oxidoreductase assay, steady-state kinetics, coupled NADPH consumption at 340 nm, pH 8.0, 25 °C. The protocol:
as §1, with “theory[11],[19],[25]. 13 Supplementary Figure 7 Supplementary Figure 7 | GSSCys assay steady-state kinetics of ScGrx7 wild-type enzyme and D144X mutants. (a) Michaelis-Menten plots of the GSH-dependent reaction velocity at different initial concentrations of GSSCys. […]” for “theory[11],[19],[25].”
The source holds these as a separate data set.

B1: ScGrx7 (Saccharomyces cerevisiae S288C) (protein)
chain: SVNESITTHHPDSLVTFDNSGNAPGTHQSVHDTVNTQDKEAEEVDKNSGDAEFDAAAEYNKIMEQSPMIVFSKTGCPYSKKLKALLTNSYTFSPSYYVVELDRHEHTKELQDQIEKVTGRRTVPNVIIGGTSRGGYTEIAELHKNDELLDSFKKWSDGAFTVKANSQSESA
notes: E. coli XL1-Blue, pQE30; N-terminal MRGS(H)6 tag
The Km is the substrate concentration at which the rate is half of its maximum. The kcat is the maximal rate divided by the concentration of active sites. The kcat/Km is the turnover number divided by the Michaelis constant. As for B1, the Km stood at 1100 ± 100 µM in data set [1]; 1479 µM in data set [2]; 427 µM in data set [3]; 286 ± 45 µM in data set [4]; 244 ± 27.1 µM in data set [5]. Moreover, the kcat in data set [1] is 72.9 ± 3.4 s⁻¹; in data set [2], 334 s⁻¹; in data set [4] it was 79.9 ± 27 s⁻¹; in data set [5], 68 ± 2.4 s⁻¹. Moreover, the kcat/Km in data set [1] turned out to be 66500 M⁻¹ s⁻¹; in data set [4], 273000 M⁻¹ s⁻¹; in data set [5] it was 279000 M⁻¹ s⁻¹.

These data come from article PMC7138851, “Quantitative assessment of the determinant structural differences between redox-active and inactive glutaredoxins” (Nature Communications, 2020).
